Assays:
[1] = target: T1, CjFur K25E K25E (Campylobacter jejuni NCTC11168?) (UniProt P0C631); experiment: EMSA; conditions: 20 mM Bis-Tris borate pH 7.4, 50 mM KCl, 3 mM MgCl2, 5% glycerol, 0.1% Triton X-100, 0.1 ug poly dI-dC, 2 nM DNA, 45 min on ice; holo: +50 uM MnCl2 (100 uM in …)
T1 sequence: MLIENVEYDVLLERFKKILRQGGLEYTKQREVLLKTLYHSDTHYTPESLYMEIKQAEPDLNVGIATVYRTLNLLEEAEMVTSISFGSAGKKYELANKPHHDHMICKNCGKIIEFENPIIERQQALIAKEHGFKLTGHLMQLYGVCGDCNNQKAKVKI

[2] = target: T2, CjFurΔS2 H43A;H102A (Campylobacter jejuni NCTC11168?) (UniProt P0C631); experiment: EMSA; conditions: 20 mM Bis-Tris borate pH 7.4, 50 mM KCl, 3 mM MgCl2, 5% glycerol, 0.1% Triton X-100, 0.1 ug poly dI-dC, 2 nM DNA, 45 min on ice; holo: +50 uM MnCl2 (100 uM in …)
T2 sequence: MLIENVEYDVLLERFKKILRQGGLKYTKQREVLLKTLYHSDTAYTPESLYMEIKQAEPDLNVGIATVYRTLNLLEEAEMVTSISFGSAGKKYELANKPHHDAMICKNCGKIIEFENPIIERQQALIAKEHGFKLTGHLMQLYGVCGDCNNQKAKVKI

[3] = target: T3, CjFur WT (Campylobacter jejuni NCTC11168?) (UniProt P0C631); experiment: EMSA; conditions: 20 mM Bis-Tris borate pH 7.4, 50 mM KCl, 3 mM MgCl2, 5% glycerol, 0.1% Triton X-100, 0.1 ug poly dI-dC, 2 nM DNA, 45 min on ice; holo: +50 uM MnCl2 (100 uM in …)
T3 sequence: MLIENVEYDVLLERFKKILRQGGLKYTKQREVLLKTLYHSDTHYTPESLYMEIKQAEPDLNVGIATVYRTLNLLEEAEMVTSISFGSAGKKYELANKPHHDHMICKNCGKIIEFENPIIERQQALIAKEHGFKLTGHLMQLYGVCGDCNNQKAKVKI

[4] = target: T4, CjFurΔS3 H99A;H137A (Campylobacter jejuni NCTC11168?) (UniProt P0C631); experiment: EMSA; conditions: 20 mM Bis-Tris borate pH 7.4, 50 mM KCl, 3 mM MgCl2, 5% glycerol, 0.1% Triton X-100, 0.1 ug poly dI-dC, 2 nM DNA, 45 min on ice; holo: +50 uM MnCl2 (100 uM in …)
T4 sequence: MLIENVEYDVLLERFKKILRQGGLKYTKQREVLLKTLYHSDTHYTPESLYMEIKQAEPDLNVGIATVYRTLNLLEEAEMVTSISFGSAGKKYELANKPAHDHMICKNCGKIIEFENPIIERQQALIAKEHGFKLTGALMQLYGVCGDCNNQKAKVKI

[5] = target: T5, CjFur R20E R20E (Campylobacter jejuni NCTC11168?) (UniProt P0C631); experiment: EMSA; conditions: 20 mM Bis-Tris borate pH 7.4, 50 mM KCl, 3 mM MgCl2, 5% glycerol, 0.1% Triton X-100, 0.1 ug poly dI-dC, 2 nM DNA, 45 min on ice; holo: +50 uM MnCl2 (100 uM in …)
T5 sequence: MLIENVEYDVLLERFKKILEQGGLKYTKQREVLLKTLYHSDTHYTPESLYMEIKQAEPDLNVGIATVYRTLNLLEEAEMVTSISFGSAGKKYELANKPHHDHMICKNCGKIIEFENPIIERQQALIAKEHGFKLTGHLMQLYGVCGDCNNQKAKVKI

[6] = target: T6, CjFur Y68A Y68A (Campylobacter jejuni NCTC11168?) (UniProt P0C631); experiment: EMSA; conditions: 20 mM Bis-Tris borate pH 7.4, 50 mM KCl, 3 mM MgCl2, 5% glycerol, 0.1% Triton X-100, 0.1 ug poly dI-dC, 2 nM DNA, 45 min on ice; holo: +50 uM MnCl2 (100 uM in …)
T6 sequence: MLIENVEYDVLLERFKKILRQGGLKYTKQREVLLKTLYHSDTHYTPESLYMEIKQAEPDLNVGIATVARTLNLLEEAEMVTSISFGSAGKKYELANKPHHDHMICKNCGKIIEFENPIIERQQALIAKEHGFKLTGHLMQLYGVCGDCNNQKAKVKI

[7] = target: T7, CjFur R69E R69E (Campylobacter jejuni NCTC11168?) (UniProt P0C631); experiment: EMSA; conditions: 20 mM Bis-Tris borate pH 7.4, 50 mM KCl, 3 mM MgCl2, 5% glycerol, 0.1% Triton X-100, 0.1 ug poly dI-dC, 2 nM DNA, 45 min on ice; holo: +50 uM MnCl2 (100 uM in …)
T7 sequence: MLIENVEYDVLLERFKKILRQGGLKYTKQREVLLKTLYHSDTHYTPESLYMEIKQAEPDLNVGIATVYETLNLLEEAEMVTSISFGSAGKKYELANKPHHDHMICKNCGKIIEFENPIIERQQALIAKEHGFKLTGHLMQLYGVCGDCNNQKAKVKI

[8] = target: T8, CjFur R30E R30E (Campylobacter jejuni NCTC11168?) (UniProt P0C631); experiment: EMSA; conditions: 20 mM Bis-Tris borate pH 7.4, 50 mM KCl, 3 mM MgCl2, 5% glycerol, 0.1% Triton X-100, 0.1 ug poly dI-dC, 2 nM DNA, 45 min on ice; holo: +50 uM MnCl2 (100 uM in …)
T8 sequence: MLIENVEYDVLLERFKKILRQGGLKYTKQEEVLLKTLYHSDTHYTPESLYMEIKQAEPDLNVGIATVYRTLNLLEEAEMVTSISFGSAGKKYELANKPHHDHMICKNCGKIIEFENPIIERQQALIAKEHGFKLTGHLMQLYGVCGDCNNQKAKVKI

[9] = target: T9, CjFur K17E K17E (Campylobacter jejuni NCTC11168?) (UniProt P0C631); experiment: EMSA; conditions: 20 mM Bis-Tris borate pH 7.4, 50 mM KCl, 3 mM MgCl2, 5% glycerol, 0.1% Triton X-100, 0.1 ug poly dI-dC, 2 nM DNA, 45 min on ice; holo: +50 uM MnCl2 (100 uM in …)
T9 sequence: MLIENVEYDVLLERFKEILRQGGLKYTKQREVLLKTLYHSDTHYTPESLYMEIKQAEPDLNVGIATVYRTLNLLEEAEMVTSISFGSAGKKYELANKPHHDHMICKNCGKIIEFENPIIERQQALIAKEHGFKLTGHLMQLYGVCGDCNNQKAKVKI

[10] = target: T10, CjFur K28E K28E (Campylobacter jejuni NCTC11168?) (UniProt P0C631); experiment: EMSA; conditions: 20 mM Bis-Tris borate pH 7.4, 50 mM KCl, 3 mM MgCl2, 5% glycerol, 0.1% Triton X-100, 0.1 ug poly dI-dC, 2 nM DNA, 45 min on ice; holo: +50 uM MnCl2 (100 uM in …)
T10 sequence: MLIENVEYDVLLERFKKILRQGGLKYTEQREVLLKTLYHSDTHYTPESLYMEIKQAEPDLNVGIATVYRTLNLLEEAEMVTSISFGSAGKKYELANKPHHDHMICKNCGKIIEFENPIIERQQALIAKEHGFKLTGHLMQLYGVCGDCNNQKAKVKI

[11] = target: the molecule itself; experiment: crystal structure; CjFur (7.5 ug/uL) crystallised in 0.1 M Bis-Tris pH 5.5, 0.25 M MgFormate, 25% PEG3350; molecular replacement; 1.8 A; form with zinc in S1 only (CjFurZn)
CjFur R69E = CjFur R69E (UniProt P0C631 1-157, R69E); experiment: EMSA; holo, 50 uM MnCl2; 0-100 nM protein; 20 mM Bis-Tris borate pH 7.4, 50 mM KCl, 3 mM MgCl2, 5% glycerol, 0.1% Triton X-100, 0.1 ug poly dI-dC, 2 nM DNA, 45 min on ice; holo: +50 uM MnCl2 (100 uM in gel); gel at 4 C; conditions: protein: recombinant; tags: N-terminal Strep tag, TEV-cleaved; chain copies: 2; label: 5' Cy5 on both strands; blunt
CjFur R30E = CjFur R30E (UniProt P0C631 1-157, R30E); experiment: as above; conditions: protein: recombinant; tags: N-terminal Strep tag, TEV-cleaved; chain copies: 2; label: 5' Cy5 on both strands; blunt
CjFur Y68A = CjFur Y68A (UniProt P0C631 1-157, Y68A); experiment: as above; conditions: protein: recombinant; tags: N-terminal Strep tag, TEV-cleaved; chain copies: 2; label: 5' Cy5 on both strands; blunt
CjFur K25E = CjFur K25E (UniProt P0C631 1-157, K25E); experiment: as above; conditions: protein: recombinant; tags: N-terminal Strep tag, TEV-cleaved; chain copies: 2; label: 5' Cy5 on both strands; blunt
CjFur WT = target: T11, CjFur WT (UniProt P0C631 1-157); experiment: EMSA; holo, 50 uM MnCl2; 0-100 nM protein; two bound species; 20 mM Bis-Tris borate pH 7.4, 50 mM KCl, 3 mM MgCl2, 5% glycerol, 0.1% Triton X-100, 0.1 ug poly dI-dC, 2 nM DNA, 45 min on ice; holo: +50 uM MnCl2 (100 uM in gel); gel at 4 C; conditions: protein: recombinant; tags: N-terminal Strep tag, TEV-cleaved; chain copies: 2; label: 5' Cy5 on both strands; blunt
T11 sequence: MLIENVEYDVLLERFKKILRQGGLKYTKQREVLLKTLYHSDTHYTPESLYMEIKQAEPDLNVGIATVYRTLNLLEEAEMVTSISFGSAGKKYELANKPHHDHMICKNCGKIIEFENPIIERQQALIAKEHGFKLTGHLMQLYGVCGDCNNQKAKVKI

GGGAAAAGAGCCAAATTTAGGTGTTATCATCAATGCTGCTAATGAAGTTGGTGTTTATAATTTTTTAGAAAATAAAAGTGGATTTTTAGACATTGCTAAATGCATTTTTAAAGCCCTTGATCATTTTGGAGTACCTAAAATTTCAAGCATAGAAGAAGTTTTTGAGTATGATTTTAAAACAAGAGAGTATTTAAGGAGTTAAA (double strand) [cj1345c promoter region]
binding [1]: no binding | binding [2]: binds more weakly | binding [3]: binds | binding [4]: binds more weakly | binding [5]: no binding | binding [6]: binds more weakly | binding [7]: no binding | binding [8]: binds more weakly | binding [9]: binds more weakly | binding [10]: no binding

B1: Campylobacter jejuni Fur (ferric uptake regulator), wild type (natural protein)
chain: MLIENVEYDVLLERFKKILRQGGLKYTKQREVLLKTLYHSDTHYTPESLYMEIKQAEPDLNVGIATVYRTLNLLEEAEMVTSISFGSAGKKYELANKPHHDHMICKNCGKIIEFENPIIERQQALIAKEHGFKLTGHLMQLYGVCGDCNNQKAKVKI
notes: Ferric uptake regulator Fur of Campylobacter jejuni; wild type; in the crystal one zinc per protomer in the S1 site (C105, C108, C145, C148), S2 and S3 sites empty; Crystallised form is called CjFurZn (zinc only in S1); the earlier structure 4ETS of the same protein is called CjFurZn2 (zinc in S1 and S3); also called CjFur; CjFurZn; source: E. coli Rosetta, purified (Strep-TACTIN beads, TEV …)
stoichiometry N [11]: 2

B2: katA promoter 60 bp (dsDNA)
DNA 1: ACTGAATAATTGCATTTTATTGATAATAAATTTCAAAATAAATTTAGTTTTTTTATATTA
DNA 2: TAATATAAAAAAACTAAATTTATTTTGAAATTTATTATCAATAAAATGCAATTATTCAGT
binding result (CjFur R69E): no binding | binding result (CjFur R30E): no binding | binding result (CjFur Y68A): no binding | binding result (CjFur K25E): no binding | binding result (CjFur WT): binds

— paper PMC5940780, “Functional insights into the interplay between DNA interaction and metal coordination in ferric uptake regulators” (Scientific Reports, 2018)
